The chains are these.
B1: Twister Ribozyme (parent)
chain: AACACUGCCAAUGCCGGUCCCAAGCCCGGAUAAAAGUGGAGGGGGCGG

This data set covers variants of B1. The experiment in a line: self-cleavage, relative activity (ratio to wild type); higher = more cleavage; co-transcriptional.
With AACACUGCCACUGCCGGUCCCAAGGCCGGAUAAAAGUGGAGGGGGCGG [A11C C25G], the self-cleavage came out at 0.115. With AGCACUGCCAAUGCCGGUCCCAAGCCCCGAUAAAAGUGGAGGGGGCGG [A2G G28C], the self-cleavage was 0.241.

Turning to AACACUGCCAAUCCCGGUCCCAAGCUCGGAUAAAAGUGGAGGGGGCGG [G13C C26U], the self-cleavage was found to be 0.0884. AACAGGGCCAAUGCCGGUCCCAAGCCCGGAUAAAAGUGGAGGGGGCGG [C5G U6G]: the self-cleavage stood at 0.232.

As to AACACUGCCAAUGCCGGCCCCAAGCCCAGAUAAAAGUGGAGGGGGCGG [U18C G28A], the self-cleavage is 0.181. Regarding AACACAGCCAAUGCCGGUCCCAAGCCCGGAUAAAAGUGGAAGGGGCGG [U6A G41A], the self-cleavage is 0.203. In the case of AACACUGCCAAUCUCGGUCCCAAGCCCGGAUAAAAGUGGAGGGGGCGG [G13C C14U], the self-cleavage turned out to be 0.408. With AACUCUGCCAAUGCCGGUCGCAAGCCCGGAUAAAAGUGGAGGGGGCGG [A4U C20G], the self-cleavage came out at 0.0603.

Take AACACUGCCAAUGCCGGUCCCAAGUCCGGAUAAAGGUGGAGGGGGCGG [C25U A35G]: the self-cleavage was found to be 0.46.

As to AACACUGCCAAAGCCGGUCCCAAGCCCGCAUAAAAGUGGAGGGGGCGG [U12A G29C], the self-cleavage was 0.949. As to AACACUGCCAAUGCCGGUCCCAAGCCCGGAUAUAAGUGGAGGGGCCGG [A33U G45C], the self-cleavage is 0.554. Next, AACACUGUCAAUGCCGGUCCCAAGCCCGGAUAAAAGUGGAUGGGGCGG [C8U G41U]: 0.117; AACACUGCCAAUGCCGGUCCAAAGCCCGGAUAAAAGUGGAGGGAGCGG [C21A G44A]: 0.113. For AACACUGCCAAUGCCGCCCCCAAGCCCGGAUAAAAGUGGAGGGGGCGG [G17C U18C] the value was 0.1; for AACACUGCCAAUGCCGGUCCCAAGCCCGGAUAAAAGUGAAGGGGGCGC [G39A G48C], 0.532. With AACACUGCCAAUGCCGGUCCCAUGCCCGGAAAAAAGUGGAGGGGGCGG [A23U U31A], the self-cleavage came out at 0.502. Take AACACUGCCAAAGCCGGUCCCAAGCCCGGAUAAAAGUGGAGGGAGCGG [U12A G44A]: the self-cleavage came to 1.04. As for AACACUGCAAAUGCCGCUCCCAAGCCCGGAUAAAAGUGGAGGGGGCGG [C9A G17C], the self-cleavage amounted to 0.0631. For AACACUGCCAAUGCCGGUCCCAAGCCCGGAUAAAAGUGGAGCGAGCGG [G42C G44A] the value was 0.396; for AACACUGCCCAUGCCGGUCCCAAGGCCGGAUAAAAGUGGAGGGGGCGG [A10C C25G], 0.31; for AACAGUGCCAAUGCCGGUCCCAAGCCCGAAUAAAAGUGGAGGGGGCGG [C5G G29A], 0.458. Next, AACAAUGCCAAAGCCGGUCCCAAGCCCGGAUAAAAGUGGAGGGGGCGG [C5A U12A]: 0.764. As for AACACUGCCAAUAGCGGUCCCAAGCCCGGAUAAAAGUGGAGGGGGCGG [G13A C14G], the self-cleavage amounted to 0.551. For AACACUGCCAAUGCCGGUCCCACGCCCGGAUAAAAGUGGAGGGGGAGG [A23C C46A] the value was 0.164; for AACACUGCCAAUGCCGGUCCCAAGCCAGGAUAAAAUUGGAGGGGGCGG [C27A G36U], 0.128; for AACACUGCCAAUUCCGGACCCAAGCCCGGAUAAAAGUGGAGGGGGCGG [G13U U18A], 0.0935. For the variant AACACUGCCAAUUCCGGUCCCAAGCCCGGAUAAAAGUGGCGGGGGCGG [G13U A40C], the self-cleavage is 0.129. Take AACACUGCCAAUGCCGGUCGCUAGCCCGGAUAAAAGUGGAGGGGGCGG [C20G A22U]: the self-cleavage is 0.122. Next, AACACUGCCAAUGCCGGUCCCAAGCCCGGAUAAAAGUGAAGUGGGCGG [G39A G42U]: 0.164; AACACUGCCAACGCCGGACCCAAGCCCGGAUAAAAGUGGAGGGGGCGG [U12C U18A]: 0.474; AACACUGCCAAUGCCGGUCCCAAGACCGGAUAAAAGUGGAGGGGGUGG [C25A C46U]: 0.104. Turning to AACACUGCCAAUGCCGGUCCCAAGACCGGAUAAAAGUGGCGGGGGCGG [C25A A40C], the self-cleavage turned out to be 0.114. In the case of AACACUGCCAAUGCCGGUCCCAAGCCCGGAUAAAAGUGGAGGUGGCGG [G43U], the self-cleavage worked out at 0.537. For AUCACUGCCAAUGCCGGUCCCAAGCCCGGAUCAAAGUGGAGGGGGCGG [A2U A32C] the value was 0.581; for AAUACUGCCAAUGCCGCUCCCAAGCCCGGAUAAAAGUGGAGGGGGCGG [C3U G17C], 0.0683; for AGCACUGCCAAUGCCGGUCCCAAGCCCGGAUAAAAGGGGAGGGGGCGG [A2G U37G], 0.173. Regarding AACACUGCCAACGCCGGUCCCAAGCCCGGAUAAAAGUGGAGGGGUCGG [U12C G45U], the self-cleavage is 0.973. As to AACACUGCCAAUGCCGGUCCCAAGCCUGGAUAACAGUGGAGGGGGCGG [C27U A34C], the self-cleavage was found to be 0.0865. AUCACUGCCAAUGCCGGUCCCAAGCCCGGAUAAAAGUGGAGGCGGCGG [A2U G43C]: the self-cleavage was 0.137. For AACACUGCCAAUGCCCGUCCCAAGCCCGGAUAAGAGUGGAGGGGGCGG [G16C A34G] the value was 0.298; for AACACAGCCAAUGCCGGUCCCAAGCCCGGAUAAAAGUGGAGGGGGCGG [U6A], 1.03; for UACACUGCCAAUGCCGGUCCCAAGCCCGUAUAAAAGUGGAGGGGGCGG [A1U G29U], 0.0849. As to AACACUGUCAAUGCCGGUCCCAAGCCCGGAUAAAAGUGGAGGGGGCGG [C8U], the self-cleavage is 0.777. Next, AACACUGCCAAUGCCGGUACCAAGCCCGGAUAAGAGUGGAGGGGGCGG [C19A A34G]: 0.101; AACGCUGCCAAUGCCGGUCCCAAGCCCGGAUAAUAGUGGAGGGGGCGG [A4G A34U]: 0.499; AACAAUGGCAAUGCCGGUCCCAAGCCCGGAUAAAAGUGGAGGGGGCGG [C5A C8G]: 0.106.

Regarding AACACUGCCAAUGCCGGUCCCAAGCCCGGAUACAAGUGGAGUGGGCGG [A33C G42U], the self-cleavage came to 0.188. Next, AACACUGCCAAUGCCGGUCCCAAGCCUGGAUAAAAGUCGAGGGGGCGG [C27U G38C]: 0.644; AACACUGCCAAUGCCGGUCCCAAGCCCGGAUAUACGUGGAGGGGGCGG [A33U A35C]: 0.961.

As to AGCACUGCCAAUGCCGGUCCCAAGCCCGGAUAAAAUUGGAGGGGGCGG [A2G G36U], the self-cleavage was 0.0889.

In the case of AAAACUGCCAAUGCCGGUCCCAAGCCCGGAGAAAAGUGGAGGGGGCGG [C3A U31G], the self-cleavage stood at 0.121. For AACACUGCCAAUGCCGGUCCCAAGCCUGGAUUAAAGUGGAGGGGGCGG [C27U A32U] the value was 0.842; for AAAACUGCCAAUGCCGGUCCCAAGCCCGGAUAAAAGUGGAGGGGGCGA [C3A G48A], 0.277. For AACACUUCCAUUGCCGGUCCCAAGCCCGGAUAAAAGUGGAGGGGGCGG [G7U A11U] the value was 0.0842.
